The results in this text go back to paper PMC11843475, “Taming interleukin‐12: Engineering of bispecific antibody‐based IL‐12 mimetics with biased agonism capacities” (Protein Science : A Publication of the Protein Society, 2025).

This assay concerns the target T1, recombinant human (rh) His-tagged IL-12Rβ1 ECD (human, UniProt P42701 24-545).
T1 construct: Interleukin-12 receptor subunit beta-1, human, extracellular domain; Loaded on anti-Penta His (HIS1K) biosensors through its His tag; also called (rh) IL-12Rβ1; IL-12 receptor subunit β1; source: bought: Acro Biosystems (ILB-H52H9)
Briefly: BLI; epitope binning / competition: 5 μg/mL His-tagged (rh) IL-12Rβ1 ECD loaded on HIS1K biosensors in PBS; first association 200 nM for 300 s, then second association 200 nM for 300 s with a 100 nM spike of the first molecule; kinetics buffer (PBS + 0.1% Tween-20, 1% BSA); 25°C, 1000 rpm; competition with rh IL-12 analysed in the same combinatorial manner. The settings on record: both partners purified. On the technique in general: In BLI a coated tip is dipped into the sample, and binding shifts an interference pattern.

B1: recombinant human (rh) IL-12 (complex)
chain 1: RNLPVATPDPGMFPCLHHSQNLLRAVSNMLQKARQTLEFYPCTSEEIDHEDITKDKTSTVEACLPLELTKNESCLNSRETSFITNGSCLASRKTSFMMALCLSSIYEDLKMYQVEFKTMNAKLLMDPKRQIFLDQNMLAVIDELMQALNFNSETVPQKSSLEEPDFYKTKIKLCILLHAFRIRAVTIDRVMSYLNAS
chain 2: IWELKKDVYVVELDWYPDAPGEMVVLTCDTPEEDGITWTLDQSSEVLGSGKTLTIQVKEFGDAGQYTCHKGGEVLSHSLLLLHKKEDGIWSTDILKDQKEPKNKTFLRCEAKNYSGRFTCWWLTTISTDLTFSVKSSRGSSDPQGVTCGAATLSAERVRGDNKEYEYSVECQEDSACPAAEESLPIEVMVDAVHKLKYENYTSSFFIRDIIKPDPPKNLQLKPLKNSRQVEVSWEYPDTWSTPHSYFSLTFCVQVQGKSKREKKDRVFTDKTSATVICRKNASISVRAQDRYYSSSWSEWASVPCS
notes: Interleukin-12 p35 alpha-subunit (IL12A), human; Interleukin-12 p40 beta-subunit (IL12B), human; Heterodimeric cytokine of p35 and p40; also called wild-type IL-12; interleukin-12; source: bought: Acro Biosystems
As for B1, the binding result was “binds”.
